The values below come from patent publication US20240424106A1, “CONJUGATE PHARMACEUTICAL PREPARATION, PREPARATION METHOD THEREFOR AND USE THEREOF” (COHERENT BIOPHARMA (SUZHOU) LIMITED, priority 2021, published 2024).

Series [1] in a line: Stated solubility and sensitivity of CR19213.
Series [2] can be described thus: Screening of amount of pH regulator: dissolution in intermediate solutions. Format: physicochemical. To be noted: 0.5% sodium citrate solution after mannitol was added and CR19213 was dissolved. As to the method: The solubility of CR19213 is related to the pH value of a solution, and the amount of the pH regulator (expressed as the concentration of a buffer salt) directly influences the pH value of the solution. Therefore, the concentration of the buffer salt needs to be screened. Since CR19213 was added to the sodium citrate solution with pH 7.0, and completely dissolved to form an acidic solution, a 1.0% sodium citrate solution (11.4 mg/mL) with pH 7.5 (regulated with citric acid) was prepared in order to make the finished product be more near-neutral, and diluted with water to obtain sodium citrate solutions at concentrations of 0.1%, 0.25%, and 0.5%, respectively. Intermediate solutions were prepared using the above-mentioned sodium citrate solutions with different concentrations. The dissolution in the intermediate solutions during the preparation were investigated.
(1) a 1.0% sodium citrate solution with pH 7.5 (regulated with citric acid) was prepared for later use;
(2) dilution was carried out with water to obtain 0.1%, 0.25% and 0.5% sodium citrate solutions, respectively;
(3) a prescribed amount of mannitol was weighed, 70% of the total amount of the sodium citrate solution was added, stirring was carried out for dissolution, then a prescribed amount of CR19213 was added, and stirring was carried out for dissolution in a dark place at room temperature; and […]

Structures are written as SMILES.

As to `CCC(C)C(C(CC(=O)N1CCCC1C(OC)C(C)C(=O)NC(C)C(O)c1ccccc1)OC)N(C)C(=O)C(NC(=O)C(C(C)C)N(C)C(=O)OCc1ccc(NC(=O)C(CCCNC(N)=O)NC(=O)C(NC(=O)CCCCCN2C(=O)CC(SCC(NC(=O)C(CCCCN)NC(=O)C(CC(=O)O)NC(=O)C(CC(=O)O)NC(=O)Cc3ccc(CNC(=O)NCCCCC(NC(=O)NC(CCC(=O)O)C(=O)O)C(=O)O)cc3)C(=O)NC(CCCCNC(=O)CCC(NC(=O)c3ccc(NCc4cnc5[nH]c(N)nc(=O)c5n4)cc3)C(=O)O)C(N)=O)C2=O)C(C)C)cc1)C(C)C` (stereo not drawn) [CR19213], in series [1], the Oxidation in solution result is given as “easily oxidized”; the Sensitivity to temperature entry was “sensitive”; the Solubility in water result is given as “poorly soluble”; the “Stability to acids and alkalis” value was “unstable”. For the same molecule, in series [1] (raw material), the Sensitivity to illumination result is “sensitive”. Moreover, the pH value in series [2] was 5.95.
